These results are taken from publication PMC12199398, “Manipulating the Light Systemic Signal HY5 Greatly Improve Fruit Quality in Tomato”.

The target of the data set is T1, HY5 (His-HY5) (Solanum lycopersicum (tomato), UniProt Q9SM50 1-158).
T1 sequence: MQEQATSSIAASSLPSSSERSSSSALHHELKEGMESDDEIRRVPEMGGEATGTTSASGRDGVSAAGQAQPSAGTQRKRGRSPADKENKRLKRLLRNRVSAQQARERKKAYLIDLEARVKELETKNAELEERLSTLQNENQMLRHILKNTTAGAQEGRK
Briefly: EMSA; LightShift Chemiluminescent EMSA Kit (Thermo 20148); buffer, salt, pH and temperature not stated. The settings on record: protein: recombinant; tags: His (pET-32a); chain copies: 2; blunt. For orientation: Mobility shift assays separate free from complexed probe on a gel.

B1: SS7 A-box probe (dsDNA)
DNA 1: GCCCGGTGTCTACGTAAGATTGACAG
DNA 2: CTGTCAATCTTACGTAGACACCGGGC
For the molecule B1, the binding result is given as “binds”.

B2: LIN5 ACE probe (dsDNA)
DNA 1: GTAAATTATTACGTCAGGCTTTAT
DNA 2: ATAAAGCCTGACGTAATAATTTAC
As to B2, the binding result is on record as “binds”.

B3: LIN6 A-box probe (dsDNA)
DNA 1: CGCAATTAAATACGTAAGGGCTTTGA
DNA 2: TCAAAGCCCTTACGTATTTAATTGCG
Take B3: the binding result is reported as “binds”.

B4: VI ACE probe (dsDNA)
DNA 1: AAGAAAAAAAATGACGTTTTTCCCCTTATT
DNA 2: AATAAGGGGAAAAACGTCATTTTTTTTCTT
As to B4, the binding result is “binds”.

B5: PSY1 Z-box probe (dsDNA)
DNA 1: GAAATCTACGTGTCTTAA
DNA 2: TTAAGACACGTAGATTTC
As for B5, the binding result is “binds”.

B6: SS1 ACE probe (dsDNA)
DNA 1: CACCCTTTAGACGTATTACAGTAG
DNA 2: CTACTGTAATACGTCTAAAGGGTG
As to B6, the binding result is given as “binds”.

B7: PDS C/G-box probe (dsDNA)
DNA 1: TGGTGGGACGTGTCAAATT
DNA 2: AATTTGACACGTCCCACCA
Consider B7, for which the binding result is listed as “binds”.
